Measurements reported in US20260139026A1 (published 2026).

Experiments:
[1] = target: T1, PIK3CA H1047L peptide on HLA-A*03:01 (human); test: multimer staining
T1 peptide: ALHGGWTTK

[2] = target: T2, PIK3CA H1047L (8-mer) peptide on HLA-A*03:01 (human); test: cytokine release
T2 peptide: LHGGWTTK

[3] = target: T3, PIK3CA H1047L (10-mer) peptide on HLA-A*03:01 (human); test: cytokine release
T3 peptide: DALHGGWTTK

Measured: binding result

B1: 1022T8 (TCR, V domains shown)
Valpha: GDSVTQMEGPVTLSEEAFLTINCTYTATGYPSLFWYVQYPGEGLQLLLKATKADDKGSNKGFEATYRKETTSFHLEKGSVQVSDSAVYFCALTVGGSYIPTFGRGTSLIVHP
Vbeta: DTEVTQTPKHLVMGMTNKKSLKCEQHMGHRAMYWYKQKAKKPPELMFVYSYEKLSINESVPSRFSPECPNSSLLNLHLHALQPEDSALYLCASSQGGQGWRETQYFGPGTRLLVL
recognises: [1] | [2] | [3]
